B1: glmS ribozyme (parent)
chain: AUAAAAGCGCCAGAACUACAGAAAUGUAGUUGACGAGGAGGAGGUUUAUCGAAUUUUCGGCGGAUGCCUCCAAA

± gives the standard error. For some of these results: Variants at the floor of the assay were thinned out.

Common to all, as to conditions: with glucosamine-6-phosphate
Series [1] covers variants of B1. Kind of series: kcat; higher = faster cleavage; RNA array. The method in brief:
(§1)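 Ribozyme variants carrying barcodes were transcribed in situ on sequenced MiSeq chips by E. coli RNA polymerase and tracked at 37 °C with a hybridised Cy3 probe. They were exposed to 40 μM to 10 mM glucosamine-6-phosphate in HEPES/KCl/Mg(OAc)2 buffer. kobs came from exponential decay fits of normalised per-tile medians, and kcat and KM from weighted Michaelis–Menten fits.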

In series [2] the parent is B1. As to the kind of experiment: self-cleavage kobs at 40 uM GlcN6P; higher = faster cleavage; RNA array. The essentials:
as §1

Series [3] covers variants of B1. Kind of series: self-cleavage kobs at 640 uM GlcN6P; higher = faster cleavage; RNA array. The essentials: as §1
Variants of B1 are the subject of series [4]. Kind of series: self-cleavage kobs at 2500 uM GlcN6P; higher = faster cleavage; RNA array. The method in brief: as §1
The variants in series [5] derive from B1. As to the kind of experiment: self-cleavage kobs at 10000 uM GlcN6P; higher = faster cleavage; RNA array. The method in brief: as §1
The variants in series [6] derive from B1. As to the kind of experiment: self-cleavage kobs at 160 uM GlcN6P; higher = faster cleavage; RNA array. The method in brief:
as §1

Series [7] covers variants of B1. As to the kind of experiment: KM; higher = weaker cofactor use; RNA array. The method in brief: as §1

As for C34A U46G, in the series with glucosamine-6-phosphate [1], the kcat (usually the number of substrate molecules converted per active site and unit of time at saturation) was < 1e-05 s⁻¹. In addition, the “self-cleavage kobs at 40 uM GlcN6P” value in the series with glucosamine-6-phosphate [2] was < 1e-05 s⁻¹. Further, the “self-cleavage kobs at 640 uM GlcN6P” value in the series with glucosamine-6-phosphate [3] is < 1e-05 s⁻¹. Also, in the series with glucosamine-6-phosphate [4], the “self-cleavage kobs at 2500 uM GlcN6P” value was < 1e-05 s⁻¹. Further, in the series with glucosamine-6-phosphate [5], the “self-cleavage kobs at 10000 uM GlcN6P” value was < 1e-05 s⁻¹.

As for C67G U69G, the kcat in the series with glucosamine-6-phosphate [1] is < 1e-05 s⁻¹. For the same variant, the “self-cleavage kobs at 160 uM GlcN6P” value in the series with glucosamine-6-phosphate [6] is < 1e-05 s⁻¹. In addition, in the series with glucosamine-6-phosphate [5], the “self-cleavage kobs at 10000 uM GlcN6P” value is < 1e-05 s⁻¹.

On to C16A C70G, for which the kcat in the series with glucosamine-6-phosphate [1] was determined as 4.18e-05 ± 5e-06 s⁻¹. For the same variant, the “self-cleavage kobs at 640 uM GlcN6P” value in the series with glucosamine-6-phosphate [3] came to 3.86e-05 ± 1.5e-05 s⁻¹. Moreover, the “self-cleavage kobs at 2500 uM GlcN6P” value with glucosamine-6-phosphate [4] came to 5.28e-05 ± 1e-05 s⁻¹. Also, in the series with glucosamine-6-phosphate [5], the “self-cleavage kobs at 10000 uM GlcN6P” value worked out at 3.56e-05 ± 7.5e-06 s⁻¹.

In the case of C10U A14U, in the series with glucosamine-6-phosphate [1], the kcat was < 1e-05 s⁻¹. In the series with glucosamine-6-phosphate [2], the “self-cleavage kobs at 40 uM GlcN6P” value is < 1e-05 s⁻¹.

G29C U30G: in the series with glucosamine-6-phosphate [1], the kcat was determined as 0.00361 ± 0.0014 s⁻¹. The “self-cleavage kobs at 40 uM GlcN6P” value in the series with glucosamine-6-phosphate [2] was determined as 8.92e-05 ± 1.8e-05 s⁻¹. Also, the “self-cleavage kobs at 160 uM GlcN6P” value with glucosamine-6-phosphate [6] came out at 0.000309 ± 6.9e-05 s⁻¹. Further, in the series with glucosamine-6-phosphate [3], the “self-cleavage kobs at 640 uM GlcN6P” value was determined as 0.00138 ± 0.00041 s⁻¹. In addition, the “self-cleavage kobs at 2500 uM GlcN6P” value with glucosamine-6-phosphate [4] came out at 0.00147 ± 0.00036 s⁻¹. Moreover, the “self-cleavage kobs at 10000 uM GlcN6P” value in the series with glucosamine-6-phosphate [5] was 0.00472 ± 0.00086 s⁻¹.

Consider G37A U47A, for which the turnover number (kcat) with glucosamine-6-phosphate [1] is 0.00374 ± 0.0017 s⁻¹. Moreover, the “self-cleavage kobs at 40 uM GlcN6P” value in the series with glucosamine-6-phosphate [2] stood at 4.6e-05 ± 1.8e-05 s⁻¹. In addition, the “self-cleavage kobs at 160 uM GlcN6P” value in the series with glucosamine-6-phosphate [6] was determined as 7.83e-05 ± 1.8e-05 s⁻¹. The “self-cleavage kobs at 640 uM GlcN6P” value in the series with glucosamine-6-phosphate [3] is 0.000278 ± 4.8e-05 s⁻¹. In addition, the “self-cleavage kobs at 2500 uM GlcN6P” value in the series with glucosamine-6-phosphate [4] is 0.000752 ± 0.00014 s⁻¹. Besides, the “self-cleavage kobs at 10000 uM GlcN6P” value in the series with glucosamine-6-phosphate [5] amounted to 0.00229 ± 0.00044 s⁻¹.

Turning to C50U G63U, the kcat in the series with glucosamine-6-phosphate [1] came out at 1.75e-05 ± 7.2e-06 s⁻¹. Moreover, in the series with glucosamine-6-phosphate [2], the “self-cleavage kobs at 40 uM GlcN6P” value is < 1e-05 s⁻¹.

Take U45A U69G: the kcat with glucosamine-6-phosphate [1] is 6.38e-05 ± 2e-05 s⁻¹. Further, the “self-cleavage kobs at 640 uM GlcN6P” value in the series with glucosamine-6-phosphate [3] was found to be 5.46e-05 ± 1.9e-05 s⁻¹. Also, the “self-cleavage kobs at 2500 uM GlcN6P” value with glucosamine-6-phosphate [4] was determined as 0.000109 ± 3.2e-05 s⁻¹.

With C10G U56A, the kcat with glucosamine-6-phosphate [1] is < 1e-05 s⁻¹. Besides, the “self-cleavage kobs at 160 uM GlcN6P” value with glucosamine-6-phosphate [6] was < 1e-05 s⁻¹. In addition, the “self-cleavage kobs at 640 uM GlcN6P” value with glucosamine-6-phosphate [3] was < 1e-05 s⁻¹.

As for A12C U46A, the catalytic constant (kcat) with glucosamine-6-phosphate [1] was 0.00133 ± 0.00029 s⁻¹. Also, the KM (usually the concentration of substrate that gives half-maximal velocity) with glucosamine-6-phosphate [7] is 2440 ± 900 µM. The “self-cleavage kobs at 160 uM GlcN6P” value in the series with glucosamine-6-phosphate [6] came out at 0.000101 ± 2.8e-05 s⁻¹. Further, the “self-cleavage kobs at 640 uM GlcN6P” value with glucosamine-6-phosphate [3] was determined as 0.000302 ± 4.8e-05 s⁻¹. In the series with glucosamine-6-phosphate [4], the “self-cleavage kobs at 2500 uM GlcN6P” value was 0.000533 ± 9.6e-05 s⁻¹. The “self-cleavage kobs at 10000 uM GlcN6P” value with glucosamine-6-phosphate [5] was found to be 0.00122 ± 0.00017 s⁻¹.

G13C A53U: the kcat in the series with glucosamine-6-phosphate [1] was 0.000137 ± 1.4e-05 s⁻¹. Further, the KM with glucosamine-6-phosphate [7] amounted to 5250 ± 1300 µM. Further, in the series with glucosamine-6-phosphate [4], the “self-cleavage kobs at 2500 uM GlcN6P” value came out at 4.93e-05 ± 1.6e-05 s⁻¹. For the same variant, in the series with glucosamine-6-phosphate [5], the “self-cleavage kobs at 10000 uM GlcN6P” value turned out to be 8.95e-05 ± 1.3e-05 s⁻¹.

Take U31C C70G: in the series with glucosamine-6-phosphate [1], the kcat was found to be 5.96e-05 ± 8.1e-06 s⁻¹. The “self-cleavage kobs at 640 uM GlcN6P” value in the series with glucosamine-6-phosphate [3] turned out to be 3.34e-05 ± 7.2e-06 s⁻¹. Also, the “self-cleavage kobs at 2500 uM GlcN6P” value with glucosamine-6-phosphate [4] is 6.15e-05 ± 7.8e-06 s⁻¹. In addition, the “self-cleavage kobs at 10000 uM GlcN6P” value in the series with glucosamine-6-phosphate [5] came out at 4.89e-05 ± 8.3e-06 s⁻¹.

G13A G32U: the kcat with glucosamine-6-phosphate [1] came to 0.000303 ± 3.2e-05 s⁻¹. Besides, the KM in the series with glucosamine-6-phosphate [7] is 3170 ± 600 µM. For the same variant, the “self-cleavage kobs at 640 uM GlcN6P” value with glucosamine-6-phosphate [3] is 4.76e-05 ± 1e-05 s⁻¹. The “self-cleavage kobs at 2500 uM GlcN6P” value with glucosamine-6-phosphate [4] was determined as 0.000147 ± 2.3e-05 s⁻¹. The “self-cleavage kobs at 10000 uM GlcN6P” value in the series with glucosamine-6-phosphate [5] was determined as 0.000221 ± 3.7e-05 s⁻¹.

For G38A C58U C68G, the kcat in the series with glucosamine-6-phosphate [1] was found to be 4.92e-05 ± 1.7e-05 s⁻¹. Besides, in the series with glucosamine-6-phosphate [3], the “self-cleavage kobs at 640 uM GlcN6P” value turned out to be 5.5e-05 ± 2.5e-05 s⁻¹. The “self-cleavage kobs at 2500 uM GlcN6P” value with glucosamine-6-phosphate [4] turned out to be 6.16e-05 ± 2.5e-05 s⁻¹.

As for G51U G60C C68A, in the series with glucosamine-6-phosphate [1], the kcat came out at 2.85e-05 ± 8.6e-06 s⁻¹.

Consider A33C U47C, for which, in the series with glucosamine-6-phosphate [1], the kcat came out at 4.24e-05 ± 1.3e-05 s⁻¹. Besides, the “self-cleavage kobs at 2500 uM GlcN6P” value in the series with glucosamine-6-phosphate [4] came to 5.42e-05 ± 1.3e-05 s⁻¹. Moreover, in the series with glucosamine-6-phosphate [5], the “self-cleavage kobs at 10000 uM GlcN6P” value was found to be 3.37e-05 ± 1e-05 s⁻¹.

As for G66U C68G, the kcat with glucosamine-6-phosphate [1] amounted to 4.91e-05 ± 1.9e-05 s⁻¹. Further, the “self-cleavage kobs at 160 uM GlcN6P” value in the series with glucosamine-6-phosphate [6] is 3.35e-05 ± 1.3e-05 s⁻¹. Also, the “self-cleavage kobs at 640 uM GlcN6P” value with glucosamine-6-phosphate [3] is 8.19e-05 ± 1.4e-05 s⁻¹. The “self-cleavage kobs at 2500 uM GlcN6P” value in the series with glucosamine-6-phosphate [4] was 6.89e-05 ± 1.1e-05 s⁻¹.

Turning to A15G U46G, in the series with glucosamine-6-phosphate [1], the kcat worked out at 0.00908 ± 0.00054 s⁻¹. The KM with glucosamine-6-phosphate [7] came out at 2020 ± 170 µM. Further, in the series with glucosamine-6-phosphate [2], the “self-cleavage kobs at 40 uM GlcN6P” value was found to be 0.000184 ± 2e-05 s⁻¹. The “self-cleavage kobs at 160 uM GlcN6P” value with glucosamine-6-phosphate [6] was 0.000667 ± 0.0001 s⁻¹. Besides, the “self-cleavage kobs at 640 uM GlcN6P” value with glucosamine-6-phosphate [3] stood at 0.00198 ± 0.00026 s⁻¹. In addition, the “self-cleavage kobs at 2500 uM GlcN6P” value with glucosamine-6-phosphate [4] is 0.00538 ± 0.00091 s⁻¹. Moreover, in the series with glucosamine-6-phosphate [5], the “self-cleavage kobs at 10000 uM GlcN6P” value stood at 0.00757 ± 0.00068 s⁻¹.

As to G38U C70U, the kcat in the series with glucosamine-6-phosphate [1] is 1.27e-05 ± 2.6e-06 s⁻¹.

On to A15G G43U, for which, in the series with glucosamine-6-phosphate [1], the kcat is 4.47e-05 ± 6.5e-06 s⁻¹. Also, in the series with glucosamine-6-phosphate [6], the “self-cleavage kobs at 160 uM GlcN6P” value was < 1e-05 s⁻¹. Besides, the “self-cleavage kobs at 2500 uM GlcN6P” value with glucosamine-6-phosphate [4] stood at 4.65e-05 ± 9.7e-06 s⁻¹. In addition, in the series with glucosamine-6-phosphate [5], the “self-cleavage kobs at 10000 uM GlcN6P” value is 4e-05 ± 5.6e-06 s⁻¹.
